Columns and labels:
[1] = system: COC(=O)c1ccccc1-c1c2ccc(=N)cc-2oc2cc(N)ccc12; assay: uptake kinetics in HeLa cells, flow cytometry; type: cell-based, Homo sapiens; settings: ATP
[2] = system: COC(=O)c1ccccc1-c1c2ccc(=N)cc-2oc2cc(N)ccc12; assay: efflux kinetics in HeLa cells, flow cytometry; type: cell-based, Homo sapiens; settings: ATP

| Substance | Km [1] | Km [2] |
| --- | --- | --- |
| P-glycoprotein (P-gp) 14A mutant (Homo sapiens; F336A/F343A/L332A/L975A/M986A/S979A/V331A/V334A/V338A/V345A/V974A/V977A/V981A/V982A) | 1.69 ± 0.12 µM |  |
| P-glycoprotein (P-gp) (Homo sapiens) |  | 2.98 ± 0.51 µM |

From article PMC7703596
